Usually EC50 stands for the concentration that produces a half-maximal response. A high value points to a less potent agent. What is called Kd is the free concentration of one partner at which half of the binding sites on the other are occupied at equilibrium, for simple one-to-one binding.

In patent US20260258125A1 (NONA BIOSCIENCES SUZHOU, published 2026) one finds EC50, Kd and co-binding rate data, which are given here for two molecules.

Experiment [1] concerns the target T1, cynomolgus CEACAM5 on CHO-K1 cells (CHOK1-cyno CEACAM5 cells) (cynomolgus monkey).
T1 construct: whole, on cells; also called CHOK1-cynoCECAM5
The experiment can be described thus: flow cytometry on CHOK1-cyno CEACAM5 cells. As for the experimental part:
Binding of recombinant anti-CEACAM5/6 dual-binding antibodies against human or cynomolgus CEACAM5 or CEACAM6 stable cells were detected by flow cytometry. […] Anti-CEACAM5/6 dual-binding antibodies were incubated with the stable cell lines. Anti-CEACAM5/6 dual-binding antibodies were serially diluted in staining buffer (PBS containing 2% FBS). 50 μL of diluted antibody solution was added to 50 μL of cell suspension containing 1-2×10⁵ cells and incubated at 4° C. for 1 hour. […] After 1-hour incubation at 4° C., cells were washed twice and run on a flow cytometer. […] The results were shown in FIGS. 8-10 and Tables 6 below.
In general terms: In flow cytometry, cells or beads pass a laser one at a time.

Experiment [2] has as its target T2, recombinant human CEACAM5 Fc-tag protein (human, UniProt P06731 35-685, limits assumed).
T2 construct: also called huCEACAM5 (Octet); huCEACAM5-Fc; not shown: Fc tag
T2 sequence (looked up): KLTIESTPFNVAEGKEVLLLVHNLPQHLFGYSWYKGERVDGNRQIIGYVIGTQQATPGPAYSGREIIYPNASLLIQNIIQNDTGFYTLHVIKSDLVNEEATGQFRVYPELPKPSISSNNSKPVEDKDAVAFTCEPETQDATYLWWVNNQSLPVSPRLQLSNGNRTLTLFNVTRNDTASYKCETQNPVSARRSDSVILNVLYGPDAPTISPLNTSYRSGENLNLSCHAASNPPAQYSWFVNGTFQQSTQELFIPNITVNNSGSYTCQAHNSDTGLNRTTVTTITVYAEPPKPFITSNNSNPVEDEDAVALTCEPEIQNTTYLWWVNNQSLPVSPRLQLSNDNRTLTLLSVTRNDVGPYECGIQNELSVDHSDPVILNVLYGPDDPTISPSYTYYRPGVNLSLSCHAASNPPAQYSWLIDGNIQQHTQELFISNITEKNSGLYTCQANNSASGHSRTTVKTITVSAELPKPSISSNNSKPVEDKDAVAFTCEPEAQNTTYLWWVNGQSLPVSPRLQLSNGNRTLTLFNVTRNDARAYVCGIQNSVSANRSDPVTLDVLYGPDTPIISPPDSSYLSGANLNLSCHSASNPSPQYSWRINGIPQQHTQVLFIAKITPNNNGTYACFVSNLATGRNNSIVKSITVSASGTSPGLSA
The experiment can be described thus: Octet (BLI), antibody on AHC sensor, antigen in solution. How it is done:
(§1) Binding kinetics of recombinant anti-CEACAM5/6 antibodies to CEACAM5 and CEACAM6 were analyzed by Octet. In Octet analysis, recombinant human CEACAM5 Fc-tag protein (#Uniprot P06731) or CEACAM6 Fc-tag protein (Uniprot P40199) was serially diluted with 1×kinetic buffer (Fortebio). Anti-CEACAM5/6 dual-binding antibodies were diluted to 5 μg/mL. Then diluted antibodies, antigen and regeneration buffer (10 mM glycine pH 1.75) were added to 96-well plates (Greiner). Rate constants for association and dissociation were measured using AHC sensor (Fortebio). The sensor surface was regenerated after each binding experiment with regeneration buffer. The traces were processed using ForteBio Data Analysis Software (version 8.0, Pall ForteBio, CA, USA).

The target of experiment [3] is T3, recombinant human CEACAM6 Fc-tag protein (human, UniProt P40199 35-320, limits assumed).
T3 construct: also called huCEACAM6 (Octet); not shown: Fc tag
T3 sequence (looked up): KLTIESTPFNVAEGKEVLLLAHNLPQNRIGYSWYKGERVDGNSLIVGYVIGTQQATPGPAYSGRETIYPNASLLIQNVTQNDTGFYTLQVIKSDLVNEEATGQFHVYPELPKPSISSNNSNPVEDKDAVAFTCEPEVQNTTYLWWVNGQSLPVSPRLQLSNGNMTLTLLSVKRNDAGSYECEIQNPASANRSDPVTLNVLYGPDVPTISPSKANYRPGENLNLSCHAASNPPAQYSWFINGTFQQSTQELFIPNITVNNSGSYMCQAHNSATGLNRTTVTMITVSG
Described as above. How it is done: as §1

Experiment [4] concerns the target T4, recombinant CEACAM5-his protein, biotinylated (UniProt P06731 35-685, limits assumed, biotinylated (sites not given)).
T4 construct: not shown: His tag
T4 sequence (looked up): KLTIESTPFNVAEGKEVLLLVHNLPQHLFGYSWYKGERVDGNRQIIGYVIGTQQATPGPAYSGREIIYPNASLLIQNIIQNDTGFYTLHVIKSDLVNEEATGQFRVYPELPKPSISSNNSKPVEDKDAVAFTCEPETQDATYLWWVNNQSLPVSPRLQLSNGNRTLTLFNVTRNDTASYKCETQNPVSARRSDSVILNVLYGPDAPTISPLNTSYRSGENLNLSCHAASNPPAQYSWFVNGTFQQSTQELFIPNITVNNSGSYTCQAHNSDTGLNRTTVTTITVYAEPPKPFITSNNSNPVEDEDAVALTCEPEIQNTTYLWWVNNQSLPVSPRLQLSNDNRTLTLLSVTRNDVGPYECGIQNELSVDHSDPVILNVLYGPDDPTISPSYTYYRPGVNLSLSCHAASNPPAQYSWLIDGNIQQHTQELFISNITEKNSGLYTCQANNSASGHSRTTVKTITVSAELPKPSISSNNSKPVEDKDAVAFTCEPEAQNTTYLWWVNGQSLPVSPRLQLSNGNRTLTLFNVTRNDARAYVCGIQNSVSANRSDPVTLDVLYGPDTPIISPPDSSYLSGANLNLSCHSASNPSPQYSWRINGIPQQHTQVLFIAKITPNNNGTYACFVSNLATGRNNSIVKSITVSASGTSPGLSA
The experiment can be described thus: Octet epitope binning on biotinylated CEACAM5-his; competitor PR304169. As for the experimental part:
(§2) In epitope binning analysis using Octet, antibodies were tested against other antibodies in a pairwise fashion to see if antibodies block one another's binding to the epitope of the antigen. The first and second antibodies was diluted into same concentration which could saturate the binding of immobilized antigens. Recombinant CEACAM5-his protein was biotinylationed and was then used as antigen and immobilized to SA sensor. The first antibody was associated with antigen and then followed by the second antibody. Data were analyzed by ForteBio Data Analysis Software (version 8.0, Pall ForteBio). The rate of RU values of the same antibody as 2nd antibody to as 1st antibody was calculated as the co-binding rate of this antibody to other antibodies.
(BLI is a label-free optical method that tracks binding on a fibre tip over time.)

Experiment [5] deals with T4, recombinant CEACAM5-his protein, …. The experiment in a line: Octet epitope binning on biotinylated CEACAM5-his; competitor PR304294. As for the experimental part:
as §2

B1: PR304294 (antibody, human IgG1, kappa, V domains shown)
VH: EVQLLESGGGLVQPGGSLRLSCAASGFTFSSYAMSWVRQAPGKGLEWVSAISGTTYNTYYAGSVKGRFTISRDNSKNTLYLQMNSLRAEDTAVYYCAKGISVAGYYYYGMDVWGQGTTVTVSS
VL: EIVMTQSPATLSVSPGERATLSCRASQSVISNLAWYQQKPGQAPRLLIYGASTRATGIPARFSGSGSGTEFTLTISSLQSEDFAVYYCHQYNNWPLTFGGGTKVEIKR
notes: Recombinant full antibody
For the molecule B1, it took 2.51 nM to reach a half-maximal effect in experiment [1] (EC50). The results for the Kd in experiment [2] and in experiment [3] were 5.48 nM and 19.9 nM, respectively. The values for the co-binding rate in experiment [4] and in experiment [5] were 1.02% and 1.8%, respectively.

B2: PR304171 (antibody, human IgG1, kappa, V domains shown)
VH: not shown
VL: EIVMTQSPATLSVSPGERATLSCRASQNVISNLAWHQQKPGQAPRLLIYTTSTRATGIPARFSGSGSGTEFTLTISSLQSEDFAVYYCQQYNNWPLTFGGGTKVEIKR
notes: Recombinant full antibody
In experiment [1], B2 came in with a half-maximal effective concentration (EC50) of 14.9 nM. The results for the co-binding rate in experiment [4] and in experiment [5] were 20.4% and 24.4%, respectively.
